The target of this data set is recombinant cofilin (His-tagged fusion protein of human cofilin), P23528.
Sequence of recombinant cofilin (His-tagged fusion protein of human cofilin), P23528 (P23528 whole entry, the tested form may be a part): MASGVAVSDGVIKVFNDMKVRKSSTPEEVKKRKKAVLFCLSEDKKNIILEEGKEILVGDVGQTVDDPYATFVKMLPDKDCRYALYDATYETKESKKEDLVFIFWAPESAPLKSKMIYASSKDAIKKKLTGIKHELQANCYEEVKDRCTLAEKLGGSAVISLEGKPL

B1: LIM kinase 1 (protein)
chain: MRLTLLCCTWREERMGEEGSELPVCASCGQRIYDGQYLQALNADWHADCFRCCDCSASLSHQYYEKDGQLFCKKDYWARYGESCHGCSEQITKGLVMVAGELKYHPECFICLTCGTFIGDGDTYTLVEHSKLYCGHCYYQTVVTPVIEQILPDSPGSHLPHTVTLVSIPASSHGKRGLSVSIDPPHGPPGCGTEHSHTVRVQGVDPGCMSPDVKNSIHVGDRILEINGTPIRNVPLDEIDLLIQETSRLLQLTLEHDPHDTLGHGLGPETSPLSSPAYTPSGEAGSSARQKPVLRSCSIDRSPGAGSLGSPASQRKDLGRSESLRVVCRPHRIFRPSDLIHGEVLGKGCFGQAIKVTHRETGEVMVMKELIRFDEETQRTFLKEVKVMRCLEHPNVLKFIGVLYKDKRLNFITEYIKGGTLRGIIKSMDSQYPWSQRVSFAKDIASGMAYLHSMNIIHRDLNSHNCLVRENKNVVVADFGLARLMVDEKTQPEGLRSLKKPDRKKRYTVVGNPYWMAPEMINGRSYDEKVDVFSFGIVLCEIIGRVNADPDYLPRTMDFGLNVRGFLDRYCPPNCPPSFFPITVRCCDLDPEKRPSFVKLEHWLETLRMHLAGHLPLGPQLEQLDRGFWETYRRGESGLPAHPEVPD
Regarding B1, the “in vitro phosphorylation of recombinant cofilin (immune complex kinase assay, autoradiography)” value is “immunoprecipitated LIMK1 (FIG. 2, a and b) from PC3 cells was capable of phosphorylating recombinant cofilin (FIG. 2c)”.
